This is an account of results in the supplement of paper PMC5998384.

The subject of data set [1] is HeLa Kyoto. Kind of data set: thermal stability score vs G1/S (z-score of summed log2 fold changes over temperatures); higher = more thermally stable than in G1/S.
Data set [2] relates to HeLa Kyoto. Put plainly: solubility change mitosis vs G1/S (difference of NP-40 vs SDS log2 ratios) (log2 ratio difference); higher = more soluble in mitosis.
Data set [3] concerns HeLa Kyoto. Put plainly: melting temperature (median over replicates), in situ; higher = more thermally stable.
The subject of data set [4] is HeLa Kyoto. Kind of data set: solubility in G1/S (NP-40 vs SDS abundance) (log2 ratio); higher = more soluble. Particulars: cell cycle stage: G1/S.
The mark [5] stands for this setting: cell cycle stage: early G1 (4.5 h after nocodazole release).
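Throughout, for melting temperature (median over replicates), in situ: HeLa Kyoto cells synchronized by double thymidine or nocodazole block, proteins quantified by TMT10plex mass spectrometry, three independent biological replicates.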
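Throughout, for solubility change mitosis vs G1/S (difference of NP-40 vs SDS log2 ratios): synchronized HeLa Kyoto cells (double thymidine block for G1/S, nocodazole release for mitosis), protein amounts in NP-40 versus SDS lysates quantified by mass spectrometry, three biological replicates.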
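Throughout, for solubility in G1/S (NP-40 vs SDS abundance): HeLa Kyoto cells arrested at G1/S by double thymidine block, proteins quantified by TMT10plex mass spectrometry in mild NP-40 versus SDS extracts, three biological replicates.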
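Throughout, for thermal stability score vs G1/S (z-score of summed log2 fold changes over temperatures): synchronized HeLa Kyoto cells, proteins quantified by TMT10plex mass spectrometry, three biological replicates, mitosis taken 0.5 h after nocodazole release, G1/S directly after double thymidine block.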

Chain of MAT2A (chain, as listed by the source): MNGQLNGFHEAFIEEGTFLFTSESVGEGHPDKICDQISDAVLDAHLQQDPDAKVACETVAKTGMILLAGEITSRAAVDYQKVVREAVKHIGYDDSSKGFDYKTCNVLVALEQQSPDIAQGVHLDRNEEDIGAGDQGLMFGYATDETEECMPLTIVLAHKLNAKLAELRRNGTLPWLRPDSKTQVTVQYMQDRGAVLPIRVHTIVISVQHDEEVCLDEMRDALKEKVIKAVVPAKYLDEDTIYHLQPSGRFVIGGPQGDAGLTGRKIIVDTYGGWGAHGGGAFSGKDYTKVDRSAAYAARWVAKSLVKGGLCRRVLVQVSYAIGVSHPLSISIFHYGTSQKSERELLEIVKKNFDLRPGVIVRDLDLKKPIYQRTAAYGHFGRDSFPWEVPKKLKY

For the substance “MASTSRLDALPRVTCPNHPDAILVEDYRAGDMICPECGLVVGDRVIDVGSEWRTFSNDKATKDPSRVGDSQNPLLSDGDLSTMIGKGTGAASFDEFGNSKYQNRRTMSSSDRAMMNAFKEITTMADRINLPRNIVDRTNNLFKQVYEQKSLKGRANDAIASACLYIACRQEGVPRTFKEICAVSRISKKEIGRCFKLILKALETSVDLITTGDFMSRFCSNLCLPKQVQMAATHIARKAVELDLVPGRSPISVAAAAIYMASQASAEKRTQKEIGDIAGVADVTIRQSYRLIYPRAPDLFPTDFKFDTPVDKLPQL [GTF2B]”, the thermal stability score came out at 2.28 with HeLa Kyoto [1] (setting [5]) and 4 in the data set on HeLa Kyoto [1] (cell cycle stage: mitosis). The “solubility change mitosis (log2)” value in the data set with HeLa Kyoto [2] was -0.111. The values for the melting temperature in the data set on HeLa Kyoto [3] (cell cycle stage: G1/S) and in the data set with HeLa Kyoto [3] (cell cycle stage: mitosis) were 49.7 °C and 49.4 °C, respectively. Further, the “solubility in G1/S (log2)” value in the data set with HeLa Kyoto [4] amounted to 0.251.

In the case of “MASTSYDYCRVPMEDGDKRCKLLLGIGILVLLIIVILGVPLIIFTIKANSEACRDGLRAVMECRNVTHLLQQELTEAQKGFQDVEAQAATCNHTVMALMASLDAEKAQGQKKVEELEGEITTLNHKLQDASAEVERLRRENQVLSVRIADKKYYPSSQDSSSAAAPQLLIVLLGLSALLQ [BST2]”, the thermal stability score was -4.66 with HeLa Kyoto [1] (setting [5]) and -5.14 in the data set with HeLa Kyoto [1] (cell cycle stage: mitosis). Also, the “solubility change mitosis (log2)” value with HeLa Kyoto [2] was found to be 0.237. Besides, the results for the melting temperature with HeLa Kyoto [3] (cell cycle stage: G1/S) and in the data set on HeLa Kyoto [3] (cell cycle stage: mitosis) were 57.4 °C and 56.4 °C, respectively. Besides, the “solubility in G1/S (log2)” value in the data set on HeLa Kyoto [4] was -0.713.

Consider “MASVGECPAPVPVKDKKLLEVKLGELPSWILMRDFSPSGIFGAFQRGYYRYYNKYINVKKGSISGITMVLACYVLFSYSFSYKHLKHERLRKYH [ATP5J2]”, for which the thermal stability score is -0.273 in the data set on HeLa Kyoto [1] (setting [5]) and 1.63 with HeLa Kyoto [1] (cell cycle stage: mitosis). Moreover, the “solubility change mitosis (log2)” value in the data set with HeLa Kyoto [2] was -0.104. Also, the melting temperature in the data set on HeLa Kyoto [3] (cell cycle stage: G1/S) came to 53 °C. Moreover, the “solubility in G1/S (log2)” value in the data set with HeLa Kyoto [4] amounted to 0.148.

For “MASVSALTEELDSITSELHAVEIQIQELTERQQELIQKKKVLTKKIKQCLEDSDAGASNEYDSSPAAWNKEDFPWSGKVKDILQNVFKLEKFRPLQLETINVTMAGKEVFLVMPTGGGKSLCYQLPALCSDGFTLVICPLISLMEDQLMVLKQLGISATMLNASSSKEHVKWVHAEMVNKNSELKLIYVTPEKIAKSKMFMSRLEKAYEARRFTRIAVDEVHCCSQWGHDFRPDYKALGILKRQFPNASLIGLTATATNHVLTDAQKILCIEKCFTFTASFNRPNLYYEVRQKPSNTEDFIEDIVKLINGRYKGQSGIIYCFSQKDSEQVTVSLQNLGIHAGAYHANLEPEDKTTVHRKWSANEIQVVVATVAFGMGIDKPDVRFVIHHSMSKSMENYYQESGRAGRDDMKADCILYYGFGDIFRISSMVVMENVGQQKLYEMVSYCQNISKCRRVLMAQHFDEVWNSEACNKMCDNCCKDSAFERKNITEYCRDLIKILKQAEELNEKLTPLKLIDSWMGKGAAKLRVAGVVAPTLPREDLEKIIAHFLIQQYLKEDYSFTAYATISYLKIGPKANLLNNEAHAITMQVTKSTQNSFRAESSQTCHSEQGDKKMEEKNSGNFQKKAANMLQQSGSKNTGAKKRKIDDA [RECQL]”, the thermal stability score with HeLa Kyoto [1] (setting [5]) was -1.7; with HeLa Kyoto [1] (cell cycle stage: mitosis), -4.39. The “solubility change mitosis (log2)” value in the data set on HeLa Kyoto [2] is -0.174. For the same substance, the values for the melting temperature in the data set on HeLa Kyoto [3] (cell cycle stage: G1/S) and in the data set with HeLa Kyoto [3] (cell cycle stage: mitosis) were 54 °C and 53.4 °C, respectively. Moreover, the “solubility in G1/S (log2)” value in the data set with HeLa Kyoto [4] amounted to 0.0561.

Consider “MASVTRAVFGELPSGGGTVEKFQLQSDLLRVDIISWGCTITALEVKDRQGRASDVVLGFAELEGYLQKQPYFGAVIGRVANRIAKGTFKVDGKEYHLAINKEPNSLHGGVRGFDKVLWTPRVLSNGVQFSRISPDGEEGYPGELKVWVTYTLDGGELIVNYRAQASQATPVNLTNHSYFNLAGQASPNINDHEVTIEADTYLPVDETLIPTGEVAPVQGTAFDLRKPVELGKHLQDFHLNGFDHNFCLKGSKEKHFCARVHHAASGRVLEVYTTQPGVQFYTGNFLDGTLKGKNGAVYPKHSGFCLETQNWPDAVNQPRFPPVLLRPGEEYDHTTWFKFSVA [GALM]”, for which the thermal stability score with HeLa Kyoto [1] (setting [5]) is -0.647; with HeLa Kyoto [1] (cell cycle stage: mitosis), -0.863. In addition, the “solubility change mitosis (log2)” value with HeLa Kyoto [2] is -0.0325. In the data set with HeLa Kyoto [3] (cell cycle stage: mitosis), this substance came in with a melting temperature of 51.4 °C. Further, in the data set on HeLa Kyoto [4], the “solubility in G1/S (log2)” value turned out to be 0.236.

MAT2A: the thermal stability score in the data set on HeLa Kyoto [1] (setting [5]) is -0.032; in the data set with HeLa Kyoto [1] (cell cycle stage: mitosis) it was 0.349. In addition, the “solubility change mitosis (log2)” value in the data set on HeLa Kyoto [2] is -0.123. Besides, the melting temperature in the data set on HeLa Kyoto [3] (cell cycle stage: G1/S) was 57 °C; in the data set on HeLa Kyoto [3] (cell cycle stage: mitosis) it was 57.3 °C. Besides, the “solubility in G1/S (log2)” value with HeLa Kyoto [4] was -0.00612.

In the case of “MATAAAAAAVMAPPGCPGSCPNFAVVCSFLERYGPLLDLPELPFPELERVLQAPPPDVGNGEVPKELVELHLKLMRKIGKSVTADRWEKYLIKICQEFNSTWAWEMEKKGYLEMSVECKLALLKYLCECQFDDNLKFKNIINEEDADTMRLQPIGRDKDGLMYWYQLDQDHNVRMYIEEQDDQDGSSWKCIVRNRNELAETLALLKAQIDPVLLKNSSQQDNSSRESPSLEDEETKKEEETPKQEEQKESEKMKSEEQPMDLENRSTANVLEETTVKKEKEDEKELVKLPVIVKLEKPLPENEEKKIIKEESDSFKENVKPIKVEVKECRADPKDTKSSMEKPVAQEPERIEFGGNIKSSHEITEKSTEETEKLKNDQQAKIPLKKREIKLSDDFDSPVKGPLCKSVTPTKEFLKDEIKQEEETCKRISTITALGHEGKQLVNGEVSDERVAPNFKTEPIETKFYETKEESYSPSKDRNIITEGNGTESLNSVITSMKTGELEKETAPLRKDADSSISVLEIHSQKAQIEEPDPPEMETSLDSSEMAKDLSSKTALSSTESCTMKGEEKSPKTKKDKRPPILECLEKLEKSKKTFLDKDAQRLSPIPEEVPKSTLESEKPGSPEAAETSPPSNIIDHCEKLASEKEVVECQSTSTVGGQSVKKVDLETLKEDSEFTKVEMDNLDNAQTSGIEEPSETKGSMQKSKFKYKLVPEEETTASENTEITSERQKEGIKLTIRISSRKKKPDSPPKVLEPENKQEKTEKEEEKTNVGRTLRRSPRISRPTAKVAEIRDQKADKKRGEGEDEVEEESTALQKTDKKEILKKSEKDTNSKVSKVKPKGKVRWTGSRTRGRWKYSSNDESEGSGSEKSSAASEEEEEKESEEAILADDDEPCKKCGLPNHPELILLCDSCDSGYHTACLRPPLMIIPDGEWFCPPCQHKLLCEKLEEQLQDLDVALKKKERAERRKERLVYVGISIENIIPPQEPDFSEDQEEKKKDSKKSKANLLERRSTRTRKCISYRFDEFDEAIDEAIEDDIKEADGGGVGRGKDISTITGHRGKDISTILDEERKENKRPQRAAAARRKKRRRLNDLDSDSNLDEEESEDEFKISDGSQDEFVVSDENPDESEEDPPSNDDSDTDFCSRRLRRHPSRPMRQSRRLRRKTPKKKYSDDDEEEESEENSRDSESDFSDDFSDDFVETRRRRSRRNQKRQINYKEDSESDGSQKSLRRGKEIRRVHKRRLSSSESEESYLSKNSEDDELAKESKRSVRKRGRSTDEYSEADEEEEEEEGKPSRKRLHRIETDEEESCDNAHGDANQPARDSQPRVLPSEQESTKKPYRIESDEEEDFENVGKVGSPLDYSLVDLPSTNGQSPGKAIENLIGKPTEKSQTPKDNSTASASLASNGTSGGQEAGAPEEEEDELLRVTDLVDYVCNSEQL [RSF1]”, the figures for the thermal stability score in the data set with HeLa Kyoto [1] (setting [5]) and in the data set with HeLa Kyoto [1] (cell cycle stage: mitosis) were 0.31 and 2.21, respectively. The “solubility change mitosis (log2)” value in the data set with HeLa Kyoto [2] was found to be 0.0168. The melting temperature with HeLa Kyoto [3] (cell cycle stage: G1/S) is 49.1 °C; in the data set with HeLa Kyoto [3] (cell cycle stage: mitosis), 51.7 °C. Besides, the “solubility in G1/S (log2)” value in the data set with HeLa Kyoto [4] is -1.03.
